Data from patent publication US20240294650A1 (Alector, published 2024).

T1: Full Axl (ECD domain of human Axl) (human, UniProt P30530 26-451)
T1 construct: also called human Axl ECD
T1 sequence: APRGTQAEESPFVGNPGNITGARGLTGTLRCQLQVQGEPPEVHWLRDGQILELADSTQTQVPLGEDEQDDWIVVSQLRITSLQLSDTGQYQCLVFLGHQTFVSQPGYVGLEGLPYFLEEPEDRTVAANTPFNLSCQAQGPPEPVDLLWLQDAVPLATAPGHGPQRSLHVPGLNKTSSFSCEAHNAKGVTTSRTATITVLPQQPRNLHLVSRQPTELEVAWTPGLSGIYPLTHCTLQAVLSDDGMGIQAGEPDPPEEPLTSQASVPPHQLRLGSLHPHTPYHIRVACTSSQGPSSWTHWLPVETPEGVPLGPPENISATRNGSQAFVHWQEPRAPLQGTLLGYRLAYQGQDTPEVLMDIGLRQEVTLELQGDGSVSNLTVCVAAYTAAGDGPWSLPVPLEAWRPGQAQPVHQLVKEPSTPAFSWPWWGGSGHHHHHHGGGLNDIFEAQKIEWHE

T2: MerTK N-terminal ECD Half-and-half chimera (human)
T2 construct: tested as culture supernatant; also called MerTK N-term half-and-half chimera; MerTK N-terminal ECD (NT-Ig1-Ig2) + Axl C-terminal ECD (FN1-FN2-JM)
T2 chain: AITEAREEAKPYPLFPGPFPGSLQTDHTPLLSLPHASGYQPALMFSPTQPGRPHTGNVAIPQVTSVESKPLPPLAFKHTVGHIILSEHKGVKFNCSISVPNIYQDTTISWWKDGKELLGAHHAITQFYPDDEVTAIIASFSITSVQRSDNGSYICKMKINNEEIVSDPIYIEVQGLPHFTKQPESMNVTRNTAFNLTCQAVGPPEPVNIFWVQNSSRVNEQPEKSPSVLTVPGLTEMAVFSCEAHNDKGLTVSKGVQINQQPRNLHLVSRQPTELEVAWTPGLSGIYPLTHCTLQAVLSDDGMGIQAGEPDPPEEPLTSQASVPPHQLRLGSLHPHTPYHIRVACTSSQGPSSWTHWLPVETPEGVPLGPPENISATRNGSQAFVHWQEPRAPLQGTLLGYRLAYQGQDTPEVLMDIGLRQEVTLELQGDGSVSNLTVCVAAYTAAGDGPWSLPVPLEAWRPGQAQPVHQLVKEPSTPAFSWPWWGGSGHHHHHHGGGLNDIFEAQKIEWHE

T3: recombinant murine MerTK extracellular domain (mouse, UniProt Q60805 19-497)
T3 construct: also called Mouse MerTK; murine MerTK ECD; not shown: polyHis or TEVS/Thrombin/murine IgG2a-Fc tag
T3 sequence: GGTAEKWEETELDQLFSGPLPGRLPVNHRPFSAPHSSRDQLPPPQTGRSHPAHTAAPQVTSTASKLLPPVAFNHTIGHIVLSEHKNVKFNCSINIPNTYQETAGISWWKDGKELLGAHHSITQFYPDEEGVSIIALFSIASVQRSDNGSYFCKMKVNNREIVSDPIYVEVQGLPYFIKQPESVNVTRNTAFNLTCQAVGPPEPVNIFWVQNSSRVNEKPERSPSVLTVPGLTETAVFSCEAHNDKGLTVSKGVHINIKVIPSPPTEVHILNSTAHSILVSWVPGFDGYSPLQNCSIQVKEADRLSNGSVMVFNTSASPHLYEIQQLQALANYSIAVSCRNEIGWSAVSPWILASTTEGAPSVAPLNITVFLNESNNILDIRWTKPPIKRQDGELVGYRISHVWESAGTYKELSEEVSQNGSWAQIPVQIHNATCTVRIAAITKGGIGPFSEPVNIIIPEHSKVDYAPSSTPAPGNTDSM

T4: endogenous murine MerTK on bone marrow-derived macrophages (mouse, UniProt Q60805 19-994)
T4 construct: whole, on cells; MFI on MerTK KO BMDM subtracted; also called BMDM WT-KO
T4 sequence (looked up): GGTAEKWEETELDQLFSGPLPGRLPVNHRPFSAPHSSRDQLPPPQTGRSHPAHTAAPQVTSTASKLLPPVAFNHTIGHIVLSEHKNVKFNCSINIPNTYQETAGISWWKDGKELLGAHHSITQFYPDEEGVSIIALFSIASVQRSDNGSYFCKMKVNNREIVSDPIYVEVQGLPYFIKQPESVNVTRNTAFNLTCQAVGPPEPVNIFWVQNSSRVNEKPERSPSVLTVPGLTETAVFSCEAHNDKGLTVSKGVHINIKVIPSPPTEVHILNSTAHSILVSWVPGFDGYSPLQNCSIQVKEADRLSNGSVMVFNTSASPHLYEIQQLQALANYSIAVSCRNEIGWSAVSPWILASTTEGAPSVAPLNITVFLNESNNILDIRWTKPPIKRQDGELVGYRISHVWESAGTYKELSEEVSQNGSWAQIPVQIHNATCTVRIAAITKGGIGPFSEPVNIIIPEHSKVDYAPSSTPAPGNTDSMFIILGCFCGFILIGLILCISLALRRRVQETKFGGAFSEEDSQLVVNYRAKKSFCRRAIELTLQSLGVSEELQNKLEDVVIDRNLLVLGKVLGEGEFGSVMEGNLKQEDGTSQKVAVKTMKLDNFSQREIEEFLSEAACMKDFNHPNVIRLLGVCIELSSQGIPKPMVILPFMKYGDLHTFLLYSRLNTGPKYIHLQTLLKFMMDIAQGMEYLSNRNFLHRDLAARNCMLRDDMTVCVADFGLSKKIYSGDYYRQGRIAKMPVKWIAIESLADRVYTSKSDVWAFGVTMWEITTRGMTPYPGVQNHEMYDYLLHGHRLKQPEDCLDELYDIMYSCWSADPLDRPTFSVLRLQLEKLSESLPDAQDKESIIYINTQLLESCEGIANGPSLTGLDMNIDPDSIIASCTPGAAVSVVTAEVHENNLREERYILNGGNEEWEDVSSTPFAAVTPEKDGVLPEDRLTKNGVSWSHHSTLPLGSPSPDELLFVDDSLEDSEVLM

T5: His tag-conjugated recombinant ProS (human, UniProt P07225 42-676, limits assumed)
T5 construct: bought; also called Protein S; ProS1 (R&D systems, Cat #9489-PS-100)
T5 sequence (looked up): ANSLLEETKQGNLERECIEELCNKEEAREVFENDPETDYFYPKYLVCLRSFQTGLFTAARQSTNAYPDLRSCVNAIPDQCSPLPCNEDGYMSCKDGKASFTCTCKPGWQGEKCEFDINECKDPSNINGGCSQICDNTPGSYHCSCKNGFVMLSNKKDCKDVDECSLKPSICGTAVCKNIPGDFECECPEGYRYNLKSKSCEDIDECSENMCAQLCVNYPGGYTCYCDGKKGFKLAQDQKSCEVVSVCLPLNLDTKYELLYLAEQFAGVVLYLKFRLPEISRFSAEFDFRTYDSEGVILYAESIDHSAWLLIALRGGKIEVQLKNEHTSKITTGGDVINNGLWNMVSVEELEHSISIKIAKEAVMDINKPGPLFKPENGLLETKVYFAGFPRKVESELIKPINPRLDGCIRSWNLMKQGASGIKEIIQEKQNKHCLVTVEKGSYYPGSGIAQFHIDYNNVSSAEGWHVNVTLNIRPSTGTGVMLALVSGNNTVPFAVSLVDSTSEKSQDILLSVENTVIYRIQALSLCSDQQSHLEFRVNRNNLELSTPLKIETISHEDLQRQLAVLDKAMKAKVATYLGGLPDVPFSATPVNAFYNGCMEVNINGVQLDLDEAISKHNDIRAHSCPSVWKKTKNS

T6: mouse MerTK overexpressed on CHO cells (mouse, UniProt Q60805 19-994)
T6 construct: whole, on cells; also called CHO-muMerTK OE
T6 sequence (looked up): T4 sequence (looked up)

B1: MTK-217 (antibody, human IgG1, V domains shown)
VH: QVQLQQPGTEVVKPGASVKMSCRASGYTFTSYWITWVKQRPGQGLEWIGDIHPGSGINNYNEKFRSKATLTVDTSSSTVYMELSSLTSEDSAVYYCAKGGYYGSSYYVMDYWGQGTSVTVSS
VL: DILLTQSPAILSVSPGERVSFSCRASQTIGTSIHWYQQRTNDSPRLLIKYASESISGIPSRFSGSGSGTDFTLSINSVESEDIADYYCQQSNDWPYTFGGGTKLEIK
B2: MTK-232 (antibody, human IgG1, V domains shown)
VH: EVQLQESGPSLVKPSQTLSLTCSVTGDSITSGYWNWIRKFPGNKLEYMGYINYSGSTNYNPSLKSRISITRDTSKNQYYLQLNSVTTEDTATYYCARWNYLYYFDYWGQGTTLTVSS
VL: DSVMTQSHKFMSTLVGDRVSITCKASQDVGTAVAWYQQKPGQSPKVLIYWASTRHTGVPDRFTGSGSGTDFTLTITNVQSEDLADYFCHQYSTYPYTFGGGTKLEIK
B3: MTK-205 (antibody, human IgG1, V domains shown)
VH: EVQLQQSGPELVKPGASVKISCKTSGYTFTEYIMHWVKQSHGKSLEWIGGINPNNLGIIYNQKFKGKATLTVDKSSSTAYMELRSLTSEDSEVYYCARDGYFGFDYWGQGTTLKVSS
VL: DIVMTQSHKFMSTSVGDRVSITCKASQDVGTSVAWYQQKPGHSPKLLIYWTSTRRTGVPDRFTGSGSGTDFTLTISNVQSEDLADYFCHQYNSYPLTFGAGTKLELK

Columns and labels:
[1] = biological target: T1, Full Axl (ECD domain of human Axl); experiment: SPR (data not shown)
Experimental: (§1) Binding of anti-MerTK antibodies of the present disclosure to these domain-swapped chimera or deletion mutants was tested by Surface Plasmon Resonance (SPR) using Carterra LSA. Purified anti-MerTK antibodies were immobilized in duplicate on a HC30M chip (Carterra) by amine coupling, following the manufacturer's instructions (described previously).
(§2) Supernatants containing the constructs were diluted 1:1 with running buffer containing 0.5 mg/mL BSA (HBS-TE, Carterra; BSA, Sigma) and injected over the immobilized antibodies. The surface was regenerated with 10 mM Glycine pH2.0 after each construct injection. Sensorgrams were analyzed using Carterra Epitope software to identify patterns of construct binding. Loss of binding to MerTK constructs with domains deleted or swapped in from Axl and/or gain of binding to Axl constructs with MerTK domains swapped in were evaluated. Data from these studies were used to construct a domain binding map for anti-MerTK antibodies and their binding to various domains of human MerTK.

[2] = biological target: T2, MerTK N-terminal ECD Half-and-half …; experiment: SPR, construct supernatant over immobilised Ab
Experimental: as §1, §2

[3] = biological target: T3, recombinant murine MerTK extracellular …; experiment: SPR Carterra LSA, Ab immobilised
Experimental: Binding kinetics of anti-MerTK IgG1 antibodies of the present disclosure to human, cyno, and murine MerTK were evaluated using a Carterra LSA instrument (Carterra, Salt Lake City, UT). […] A HC200M sensor chip (Carterra) was activated using the single channel flow cell with a 7-minute injection of a 1:1:1 mixture of 100 mM MES pH 5.5, 100 mM sulfo-NHS, 400 mM EDC (all reconstituted in MES pH 5.5; 100 μl of each mixed in vial immediately before running assay). After switching to the multi-channel array flow cell, the antibodies were injected over the activated chip in three 96-spot arrays for 10 minutes each. The remaining unconjugated active groups on the chip were then blocked by injecting 1M Ethanolamine pH 8.5 (Carterra) for 7 minutes using the single channel flow cell. The resulting sensor chip contained three spots for each antibody, at three different densities. Two independent experiments were performed as follows, resulting in an N of between one and six determinations for each antibody. Spots that yielded less than 25 RU of analyte binding were excluded from further analysis.
After priming with running buffer (HBS-TE, Carterra) with 0.5 mg/ml BSA (Sigma), the immobilized anti-MerTK antibodies were tested for their ability to bind to several forms of recombinant MerTK extracellular domain, including human, cynomolgus, and mouse orthologs as described above. Estimates of affinity were generated by injecting each analyte over the entire antibody array using the single channel flow cell. MerTK analytes were diluted with running buffer, in a series of six, three-fold serial dilutions starting from 1 μM for human and cynomolgus MerTK, and 600 nM for mouse MerTK. Analytes were injected for 5 minutes, and dissociation was followed for 10 minutes. After each analyte injection, antibodies were regenerated with either Protein A/G Elution Buffer (Thermo) with 1M NaCl (Teknova), or with 10 mM Glycine pH 2.5. Three buffer blanks were run between each series (one species per series). Data were processed and analyzed using NextGenKIT high-throughput kinetics analysis software (Carterra).

[4] = biological target: T4, endogenous murine MerTK on bone …; experiment: FACS, mouse BMDM, WT minus MerTK KO
Experimental: (§3) To determine whether recombinant anti-human MerTK antibodies of the present disclosure bind to human MerTK endogenously expressed on SK-MEL-5 cells and CHO cells overexpressing mouse MerTK (CHO-muMerTK OE cells), as compared to A375 and parental CHO cells as negative controls, the following experiments were performed. SK-MEL-5 cells, A375 cells, CHO-muMerTK OE cells, and CHO parental cells were plated at 100,000 cells/well. Anti-MerTK antibodies were added to the cells at 10 μg/ml. After 60 minutes on ice, cells were washed and then stained with PE-conjugated goat anti-human IgG antibody (Southern Biotech Cat #2040-09, Birmingham, AL) in the presence of Fc block solution on ice for 30 minutes, and then washed twice with cold FACS buffer (2% FBS in PBS). Mouse anti-human MerTK-PE conjugated (Biolegend, Clone 590H11G1E3) or anti-mouse MerTK-PE conjugated (ThermoFisher, Clone DS5MMER) antibodies were used as positive controls. Stained cells were acquired on a BD FACS Canto II cytometer and the mean fluorescence intensity (MFI) was calculated with FlowJo.
To confirm anti-MerTK antibody binding to endogenous murine MerTK, bone marrow-derived macrophages (BMDM) were isolated from MerTK wild type (WT) and knockout (KO) mice (The Jackson Laboratory, Cat #011122) using standard protocols. Briefly, cells isolated from the bone marrow were plated in the presence of 50 ng/ml M-CSF (R&D Systems, Cat #416-ML) for seven days to allow for differentiation into macrophages. Cell staining, FACs, and MFI were performed and calculated as described above.

[5] = biological target: T5, His tag-conjugated recombinant ProS; experiment: ELISA, captured Ab, ProS-His 10 ug/ml, no MerTK
[6] = biological target: T6, mouse MerTK overexpressed on CHO cells; experiment: FACS, CHO-muMerTK OE cells, 10 ug/ml
Experimental: as §3

Row | Binder | binding result [1] | binding result [2] | binding result [3] | MFI [4] | binding result [5] | MFI [6]
1 | B1 | no binding | no binding | no binding (tested: analyte up to 600 nM) | – | – | –
2 | B2 | – | – | no binding (tested: analyte up to 600 nM) | 412 MFI | binds | –
3 | B3 | no binding | no binding | – | 737 MFI | – | 240 MFI
